For experiment [1], the target named is T1, human CD73 on Calu6 cells (human, UniProt P21589 27-549).
T1 sequence (looked up): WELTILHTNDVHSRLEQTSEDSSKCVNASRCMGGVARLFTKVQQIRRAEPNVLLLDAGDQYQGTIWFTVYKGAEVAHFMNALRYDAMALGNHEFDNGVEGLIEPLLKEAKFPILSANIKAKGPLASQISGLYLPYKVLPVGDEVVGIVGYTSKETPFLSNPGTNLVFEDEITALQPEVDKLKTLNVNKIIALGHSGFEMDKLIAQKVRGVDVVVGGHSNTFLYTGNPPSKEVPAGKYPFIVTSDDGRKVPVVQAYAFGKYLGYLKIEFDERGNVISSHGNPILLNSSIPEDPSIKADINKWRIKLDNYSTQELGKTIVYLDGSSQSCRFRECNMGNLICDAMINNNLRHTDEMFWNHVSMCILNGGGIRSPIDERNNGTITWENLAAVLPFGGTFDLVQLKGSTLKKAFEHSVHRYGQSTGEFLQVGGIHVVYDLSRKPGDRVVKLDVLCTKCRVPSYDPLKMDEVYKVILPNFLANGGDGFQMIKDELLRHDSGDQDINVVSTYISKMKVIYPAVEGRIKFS
The experiment in a line: cell-based or functional assay.

Experiment [2] deals with T2, human GITR on cells (activated human T cells; 3A9-hGITR cells) (human, UniProt Q9Y5U5 26-241).
T2 sequence (looked up): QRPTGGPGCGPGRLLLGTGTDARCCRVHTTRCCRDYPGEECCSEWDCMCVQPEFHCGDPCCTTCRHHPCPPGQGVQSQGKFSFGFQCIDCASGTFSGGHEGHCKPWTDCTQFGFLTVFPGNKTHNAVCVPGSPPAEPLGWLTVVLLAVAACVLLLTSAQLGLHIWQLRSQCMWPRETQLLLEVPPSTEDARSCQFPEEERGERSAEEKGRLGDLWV
Description: cell-based or functional assay.

B1: CD73.4-IgG2.3G1.1f-KH (antibody)
heavy: QVQLVESGGGVVQPGRSLRLSCAASGFTFSNYGMHWVRQAPGKGLEWVAVILYDGSNKYYPDSVKGRFTISRDNSKNTLYLQMNSLRAEDTAVYYCARGGSSWYPDSFDIWGQGTMVTVSSASTKGPSVFPLAPCSRSTSESTAALGCLVKDYFPEPVTVSWNSGALTSGVHTFPAVLQSSGLYSLSSVVTVPSSNFGTQTYTCNVDHKPSNTKVDKTVERKSCVECPPCPAPPVAGPSVFLFPPKPKDTLMISRTPEVTCVVVDVSHEDPEVKFNWYVDGVEVHNAKTKPREEQYNSTYRVVSVLTVLHQDWLNGKEYKCKVSNKALPSSIEKTISKAKGQPREPQVYTLPPSREEMTKNQVSLTCLVKGFYPSDIAVEWESNGQPENNYKTTPPVLDSDGSFFLYSKLTVDKSRWQQGNVFSCSVMHEALHNHYTQKSLSLSPGK
light: not shown
In the case of B1, the “Ymax, CD73 internalization, Calu6 cells, 2 h” value (from here on “Ymax, CD73 internalization”) in experiment [1] is 97 % of 100 nM 11F11.

B2: anti-GITR-IgG2 (antibody)
heavy: QVQLVESGGGVVQPGRSLRLSCAASGFTFSSYGMHWVRQAPGKGLEWVAVIWYEGSNKYYADSVKGRFTISRDNSKNTLYLQMNSLRAEDTAVYYCARGGSMVRGDYYYGMDVWGQGTTVTVSSASTKGPSVFPLAPCSRSTSESTAALGCLVKDYFPEPVTVSWNSGALTSGVHTFPAVLQSSGLYSLSSVVTVPSSNFGTQTYTCNVDHKPSNTKVDKTVERKCCVECPPCPAPPVAGPSVFLFPPKPKDTLMISRTPEVTCVVVDVSHEDPEVQFNWYVDGVEVHNAKTKPREEQFNSTFRVVSVLTVVHQDWLNGKEYKCKVSNKGLPAPIEKTISKTKGQPREPQVYTLPPSREEMTKNQVSLTCLVKGFYPSDIAVEWESNGQPENNYKTTPPMLDSDGSFFLYSKLTVDKSRWQQGNVFSCSVMHEALHNHYTQKSLSLSPGK
light: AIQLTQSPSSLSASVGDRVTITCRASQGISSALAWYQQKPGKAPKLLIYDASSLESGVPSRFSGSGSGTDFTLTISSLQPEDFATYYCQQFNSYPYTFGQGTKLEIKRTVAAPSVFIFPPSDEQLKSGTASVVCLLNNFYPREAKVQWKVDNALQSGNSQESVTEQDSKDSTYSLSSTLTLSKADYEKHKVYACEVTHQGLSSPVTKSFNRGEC
Regarding B2, in experiment [2], the “Emax (%), phospho-p65 NFkB signaling, CD4+ T cells” value is 69 % of GITR.6.G2.G1f and the “Emax (%), phospho-p65 NFkB signaling, CD8+ T cells” value is 85 % of GITR.6.G2.G1f.

B3: 11F11 (antibody, human IgG2, kappa, V domains shown)
VH: QVQLVESGGGVVQPGRSLRLSCATSGFTFSNYGMHWVRQAPGKGLEWVAVILYDGSNKYYPDSVKGRFTISRDNSKNTLYLQMNSLRAEDTAVYYCARGGSSWYPDSFDIWGQGTMVTVSS
VL: DIQMTQSPSSLSASVGDRVTITCRASQGISSWLAWYQQKPEKAPKSLIYAASSLQSGVPSRFSGSGSGTDFTLTISSLQPEDFATYYCQQYNSYPLTFGGGTKVEIKR
In the case of B3, the “Ymax, CD73 internalization” value in experiment [1] is 98 % of 100 nM 11F11.

B4: CD73.10-IgG2-C219S (antibody)
heavy: QVQLVESGGGVVQPGRSLRLSCAASGFTFSNYGMHWVRQAPGKGLEWVAVIWYDESNKYYPDSVKGRFTISRDNSKNTLYLQMNSLRAEDTAVYYCARGGSSWYPDSFDIWGQGTMVTVSSASTKGPSVFPLAPCSRSTSESTAALGCLVKDYFPEPVTVSWNSGALTSGVHTFPAVLQSSGLYSLSSVVTVPSSNFGTQTYTCNVDHKPSNTKVDKTVERKSCVECPPCPAPPVAGPSVFLFPPKPKDTLMISRTPEVTCVVVDVSHEDPEVQFNWYVDGVEVHNAKTKPREEQFNSTFRVVSVLTVVHQDWLNGKEYKCKVSNKGLPAPIEKTISKTKGQPREPQVYTLPPSREEMTKNQVSLTCLVKGFYPSDIAVEWESNGQPENNYKTTPPMLDSDGSFFLYSKLTVDKSRWQQGNVFSCSVMHEALHNHYTQKSLSLSPG
light: not shown
B4: the “Ymax, CD73 internalization” value in experiment [1] was 99 % of 100 nM 11F11.

B5: CD73.10-IgG2-C219S-IgG1.1 (antibody)
heavy: QVQLVESGGGVVQPGRSLRLSCAASGFTFSNYGMHWVRQAPGKGLEWVAVIWYDESNKYYPDSVKGRFTISRDNSKNTLYLQMNSLRAEDTAVYYCARGGSSWYPDSFDIWGQGTMVTVSSASTKGPSVFPLAPCSRSTSESTAALGCLVKDYFPEPVTVSWNSGALTSGVHTFPAVLQSSGLYSLSSVVTVPSSNFGTQTYTCNVDHKPSNTKVDKTVERKSCVECPPCPAPPVAGPSVFLFPPKPKDTLMISRTPEVTCVVVDVSHEDPEVKFNWYVDGVEVHNAKTKPREEQYNSTYRVVSVLTVLHQDWLNGKEYKCKVSNKALPSSIEKTISKAKGQPREPQVYTLPPSREEMTKNQVSLTCLVKGFYPSDIAVEWESNGQPENNYKTTPPMLDSDGSFFLYSKLTVDKSRWQQGNVFSCSVMHEALHNHYTQKSLSLSPG
light: not shown
With B5, in experiment [1], the “Ymax, CD73 internalization” value was 99 % of 100 nM 11F11.

The values above are taken from patent US20180333502A1 (published 2018).
